# B1: HA-tagged Arl6IP5 (ADP ribosylation factor-like GTPase 6-interacting protein 5) (natural protein, human, UniProt O75915 1-188, looked up)
# chain: MDVNIAPLRAWDDFFPGSDRFARPDFRDISKWNNRVVSNLLYYQTNYLVVAAMMISIVGFLSPFNMILGGIVVVLVFTGFVWAAHNKDVLRRMKKRYPTTFVMVVMLASYFLISMFGGVMVFVFGITFPLLLMFIHASLRLRNLKNKLENKMEGIGLKRTPMGIVLDALEQQEEGINRLTDYISKVKE
# notes: Arl6IP5, human, cDNA in pCMV vector with N-terminal HA tag; ER membrane protein; tested in the membrane fraction, not solubilised; also called HA-Arl6IP5; PRAF3; source: COS-7, transfected (PEI), crude membrane fraction; not shown: HA, N-terminal, kept
# Target: the molecule itself
# Assay: SDS-PAGE and immunoblot without cross-linker (SDS-resistant dimer); same membrane fraction of COS-7 cells transfected with HA-Arl6IP5, without BS3; anti-HA immunoblot
protein,measurement,value
B1,stoichiometry N,2

# Source: publication PMC12136792, “ADP ribosylation factor–like GTPase 6–interacting protein 5 (Arl6IP5) is an ER membrane-shaping protein that modulates ER-phagy” (The Journal of Biological Chemistry, 2025)
